# From patent US20220088134A1 (REGENTS OF THE UNIVERSITY OF MINNESOTA, published 2022)
# Molecular target: human CD200 activation receptors (CD200AR) (human)
# Experiment: cell-based or functional assay
binder,measurement,value
Ac-CLFNTFGFGAISGTA-NH2 [human CD200AR-L peptide P4A10],T-cell secretion of IFNγ after treatment of iDCs with P4A10,5.4 fold
same,T-cell secretion of IL6 after treatment of iDCs with P4A10,5.6 fold
same,T-cell secretion of RANTES after treatment of iDCs with P4A10,16.3 fold
same,T-cell secretion of TNFα after treatment of iDCs with P4A10,16.6 fold
